This is an account of results in PMC8491902, “Experimental and computational investigation of enzyme functional annotations uncovers misannotation in the EC 1.1.3.15 enzyme class” (PLoS Computational Biology, 2021).

For data set [1], the target named is T1, C9Y9E7 (Curvibacter putative symbiont of Hydra magnipapillata, UniProt C9Y9E7).
T1 construct: gene lldD; full-length synthetic gene in pET21a, C-terminal linker and deca-His tag, soluble E. coli BL21(DE3) lysate
T1 sequence (C9Y9E7 1-381): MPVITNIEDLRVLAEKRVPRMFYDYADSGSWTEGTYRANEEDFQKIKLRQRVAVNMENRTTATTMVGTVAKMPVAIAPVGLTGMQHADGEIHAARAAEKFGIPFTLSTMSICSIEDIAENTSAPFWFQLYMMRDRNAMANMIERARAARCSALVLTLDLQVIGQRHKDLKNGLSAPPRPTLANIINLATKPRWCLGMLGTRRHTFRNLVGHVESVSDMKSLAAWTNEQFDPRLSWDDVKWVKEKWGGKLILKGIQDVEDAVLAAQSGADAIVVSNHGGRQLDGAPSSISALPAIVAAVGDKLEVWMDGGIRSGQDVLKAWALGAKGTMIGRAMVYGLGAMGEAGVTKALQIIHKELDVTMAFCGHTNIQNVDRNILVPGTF
As to the kind of experiment: Amplex Red peroxide assay. In kind it is biochemical. The following applies: […] DL-mandelate; […] HEPES pH […]; HRP; lysate.

Data set [2] has as its target T2, W6W585 (Rhizobium sp. CF080, UniProt W6W585).
T2 construct: gene PMI07_004712; full-length synthetic gene in pET21a, C-terminal linker and deca-His tag, soluble E. coli BL21(DE3) lysate
T2 sequence (W6W585 1-409): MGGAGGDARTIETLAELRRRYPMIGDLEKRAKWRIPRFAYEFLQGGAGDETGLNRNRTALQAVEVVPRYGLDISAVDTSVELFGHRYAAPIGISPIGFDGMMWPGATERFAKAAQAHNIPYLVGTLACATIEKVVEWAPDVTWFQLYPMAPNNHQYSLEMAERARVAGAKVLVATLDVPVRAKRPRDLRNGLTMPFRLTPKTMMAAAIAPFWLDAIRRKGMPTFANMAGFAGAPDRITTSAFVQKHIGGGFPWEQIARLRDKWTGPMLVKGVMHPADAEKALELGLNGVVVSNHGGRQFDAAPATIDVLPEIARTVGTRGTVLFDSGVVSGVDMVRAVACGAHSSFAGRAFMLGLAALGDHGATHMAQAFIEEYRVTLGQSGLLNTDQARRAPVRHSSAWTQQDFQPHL
As to the kind of experiment: Amplex Red peroxide assay. The following applies: […] DL-mandelate; […] HEPES pH […]; HRP; lysate. In kind it is biochemical.

The target of data set [3] is T3, E6SCX5 (Intrasporangium calvum, UniProt E6SCX5).
T3 construct: gene Intca_2052; full-length synthetic gene in pET21a, C-terminal linker and deca-His tag, soluble E. coli BL21(DE3) lysate
T3 sequence (E6SCX5 1-415): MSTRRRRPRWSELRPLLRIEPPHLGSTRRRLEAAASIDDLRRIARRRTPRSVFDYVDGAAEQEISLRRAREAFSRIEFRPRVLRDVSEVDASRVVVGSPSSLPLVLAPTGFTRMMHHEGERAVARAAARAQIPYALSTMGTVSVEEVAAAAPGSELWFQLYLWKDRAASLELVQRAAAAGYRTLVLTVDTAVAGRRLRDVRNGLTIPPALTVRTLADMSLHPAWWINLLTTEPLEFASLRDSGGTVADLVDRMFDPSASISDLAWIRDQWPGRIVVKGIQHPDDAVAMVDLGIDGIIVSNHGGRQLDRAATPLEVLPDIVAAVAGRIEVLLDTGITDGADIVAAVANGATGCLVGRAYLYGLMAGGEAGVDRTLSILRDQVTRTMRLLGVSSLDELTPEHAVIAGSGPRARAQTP
As to the kind of experiment: Amplex Red peroxide assay. In kind it is biochemical. The following applies: 1 mM DL-mandelate; 20 mM HEPES pH 7.4; HRP; lysate.

In data set [4] the target is T4, B8MKR3 (Talaromyces stipitatus, UniProt B8MKR3).
T4 construct: gene TSTA_043820
T4 sequence (B8MKR3 1-496): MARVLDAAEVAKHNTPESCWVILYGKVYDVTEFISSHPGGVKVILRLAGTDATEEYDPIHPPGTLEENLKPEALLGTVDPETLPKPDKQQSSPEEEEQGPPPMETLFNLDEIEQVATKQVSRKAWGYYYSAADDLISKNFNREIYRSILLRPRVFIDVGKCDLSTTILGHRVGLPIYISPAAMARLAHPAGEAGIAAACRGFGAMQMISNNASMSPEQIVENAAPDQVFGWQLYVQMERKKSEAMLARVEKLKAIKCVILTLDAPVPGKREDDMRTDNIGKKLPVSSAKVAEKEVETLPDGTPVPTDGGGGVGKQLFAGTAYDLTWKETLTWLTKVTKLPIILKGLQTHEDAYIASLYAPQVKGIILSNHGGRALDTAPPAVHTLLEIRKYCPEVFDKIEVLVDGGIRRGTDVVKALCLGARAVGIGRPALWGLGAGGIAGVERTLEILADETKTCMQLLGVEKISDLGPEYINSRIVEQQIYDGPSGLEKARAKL
Briefly: cytochrome c reduction at […] nm. In kind it is biochemical. The note with it: 2 mM substrate; 0.1 mM cytochrome c; 20 mM HEPES pH 7.4.

Substrate in data set [5]: C[C@@H](O)C(=O)O
As to the kind of experiment: purified protein. The following applies: DCPIP + PMS as electron acceptor, 20 mM HEPES pH 7.4, 25 °C.

Substrate in data set [6]: O=P(O)(O)OC[C@H](O)CO
As to the kind of experiment: purified protein. Format: biochemical, Caloramator mitchellensis. The following applies: DCPIP + PMS as electron acceptor, 20 mM HEPES pH 7.4, 25 °C.

For `O=C(O)C(O)c1ccccc1` (racemic) [DL-mandelate], the “Amplex Red peroxide assay” value in data set [1], in data set [2] and in data set [3] was “the four proteins display a high activity with mandelate” throughout.

Regarding `C[C@H](O)C(=O)O` [L-lactate], the “cytochrome c reduction at 550 nm” value in data set [4] is on record as “the B8MKR3 protein displayed cytochrome b2 L-lactate dehydrogenase activity”.

B1: D4MUV9 (Anaerostipes hadrus) (protein)
chain: MSEYQYNKVTPEMIEKFKEIAPKRVLVGDEINEDFTHDEMAIYGKARPEVLVEATSTEEVAAVVKLCNENKIPVTPSGARTGLVGGAVSIGGGVMISLTKMNKILGYDKENFVVKIQSGVLLNDLAQDAEKQGLLYPPDPGEKFATVGGNVATNAGGMRAVKYGCTRDYVRAMTVVLPTGEIVKLGATVSKTSSGYSLLNLMIGSEGTLGIITELTLKVIPAPKSVISLIIPYENLEDCIATVPQFFMHHLAPQALEFMEKEVVMDTEKFLGKQVYPKELEGTEIGAYLLATFDGNSEEQLEDIIEQASEVVLEAGAIDVLVADTPALKKDAWAVRGALLEAIEADTVLLDECDVVVPTNKIAEFLTYTKSLEAEADFRVKSFGHAGDGNLHIYTCSNDMEEGEFKKQVAVFMDKVYAKATEFGGMISGEHGIGHGKMDYLAESLGPVQMRIMEGVKEVFDPNMILNPGKICYKL
As usually defined, the kcat is the maximal rate divided by the concentration of active sites. Broadly, the kcat/Km is the second-order rate constant that governs catalysis at low substrate concentration. For the molecule B1, in data set [5], the Km is recorded as 0.40 +/- 0.04 x 10^-3 M, the kcat amounted to 5.18 s⁻¹ and the kcat/Km amounted to 13100 M⁻¹ s⁻¹.

B2: A0A0R3K2G2 (Caloramator mitchellensis) (protein)
chain: MFDVAIIGAGVIGCSIARELSKYNLNVALIEKENDVGNVTTKANSAIIHAGYDAKPGTLKGKLNAKGNLMFDELCRELEVPFKRVGSLVLAFDDDEMKTLGKLYEQGIQNGVPELYILSKEKVLEMDPNISDNIKGALYAKTGGIIGPWEFTIALAENAVENGVNIFLSNEVVDIEKKDFGYRIITNKDTYDTKYVVNCAGLYADKINNMVSNNKMEIIPRRGQYYLLDKTVGNLVKYVIFQCPSKLGKGVLVTPTVHGNLLIGPDAEDLIDKTALNTTSEGLNFIVEVARRSVKTLPLNMAITNFAGLRARTERDDFIIEEAVDAKGFINVAGIESPGLSSAPAISLYVIDILKNIAKKIEKKENFNPYRRAIPKFIELSEDEKNELVKKDKRFGKIICRCESITEGEIVSAIHRNVGARTVDAVKRRVRAGMGRCQGGFCSPRVIEILARELGVEMTEIEKDHEGSYILTGPTKSEVQ
As to B2, in data set [6], the Km was 1.97 +/- 0.23 x 10^-3 M, the kcat is 0.242 s⁻¹ and the kcat/Km amounted to 123 M⁻¹ s⁻¹.
